# In publication PMC3713010, “Sox2 Transcriptionally Regulates Pqbp1, an Intellectual Disability-Microcephaly Causative Gene, in Neural Stem Progenitor Cells”:
# T1: Brn2 DNA-binding domain (BD-Brn2) (Mus musculus (B6), UniProt P31360 336-435)
# T1 sequence: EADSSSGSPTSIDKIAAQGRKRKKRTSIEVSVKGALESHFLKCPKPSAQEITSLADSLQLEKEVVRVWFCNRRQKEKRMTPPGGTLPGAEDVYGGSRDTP
# T2: Oct6 DNA-binding domain (BD-Oct6) (Mus musculus (B6), UniProt P21952 317-416)
# T2 sequence: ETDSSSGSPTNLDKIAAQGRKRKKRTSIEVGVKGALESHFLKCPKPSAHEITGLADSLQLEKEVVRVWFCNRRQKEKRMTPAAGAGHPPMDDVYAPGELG
# B1: 82 (dsDNA)
# DNA 1: GGGGGACTATTTATTTGTGTTTTCCTATTCACTTTACATCCCCC
# DNA 2: GGGGGATGTAAAGTGAATAGGAAAACACAAATAAATAGTCCCCC
# B2: 90 (dsDNA)
# DNA 1: GGGGGTGCTGTTTTTTGTTACTGTCACTAATTACATTTTAAATTATCCCCC
# DNA 2: GGGGGATAATTTAAAATGTAATTAGTGACAGTAACAAAAAACAGCACCCCC
# B3: 95 (dsDNA)
# DNA 1: GGGGGGGTTTTCTTTTGTACACTTAATATCCGCTGGGGCCCCC
# DNA 2: GGGGGCCCCAGCGGATATTAAGTGTACAAAAGAAAACCCCCCC
# B4: 83 (dsDNA)
# DNA 1: GGGGGGTCCAAGTTTTGTGACCCTTTAATACAGTTAGATCCCCCC
# DNA 2: GGGGGGATCTAACTGTATTAAAGGGTCACAAAACTTGGACCCCCC
# B5: 85 (dsDNA)
# DNA 1: GGGGGACATATGCAATTGTTTCCTGTATTATAGTAGAGATCCCCC
# DNA 2: GGGGGATCTCTACTATAATACAGGAAACAATTGCATATGTCCCCC
# B6: 98 (dsDNA)
# DNA 1: GGGGGTTATGAATACAATTCATTATAACCATGGATCCCCC
# DNA 2: GGGGGATCCATGGTTATAATGAATTGTATTCATAACCCCC
# B7: 94 (dsDNA)
# DNA 1: GGGGGATCTGTAAAGGAAATTACTTTGTAGGAAATTTGATGGAACTGCCCCC
# DNA 2: GGGGGCAGTTCCATCAAATTTCCTACAAAGTAATTTCCTTTACAGATCCCCC
# B8: 91 (dsDNA)
# DNA 1: GGGGGTTTGTTTGTTTGTTTTTAAAAATAAGGTCTCGGGCCCCC
# DNA 2: GGGGGCCCGAGACCTTATTTTTAAAAACAAACAAACAAACCCCC
# B9: 93 (dsDNA)
# DNA 1: GGGGGATAGAGGCACAAAAATTTCCAGAGACTGGCCCCC
# DNA 2: GGGGGCCAGTCTCTGGAAATTTTTGTGCCTCTATCCCCC
# B10: 96 (dsDNA)
# DNA 1: GGGGGACATAGACACAAATAGCAGACAATGACCTTGACCCCC
# DNA 2: GGGGGTCAAGGTCATTGTCTGCTATTTGTGTCTATGTCCCCC
# B11: 87 (dsDNA)
# DNA 1: GGGGGTTATGACTGTTTAATAATATATATTGTGTTCTGGCCCCCC
# DNA 2: GGGGGGCCAGAACACAATATATATTATTAAACAGTCATAACCCCC
# B12: 97 (dsDNA)
# DNA 1: GGGGGTAGATGCTACAAAAGATACTGATTAAAACCCAAATGCCCCC
# DNA 2: GGGGGCATTTGGGTTTTAATCAGTATCTTTTGTAGCATCTACCCCC
# B13: 99 (dsDNA)
# DNA 1: GGGGGATATAACAAGATAATCATTGTTTTGAATATTCCAAGGATTTCCCCC
# DNA 2: GGGGGAAATCCTTGGAATATTCAAAACAATGATTATCTTGTTATATCCCCC
# B14: 89 (dsDNA)
# DNA 1: GGGGGCTACCACACCCAACCTCTAGTAAAGGTTTACAAAATGAATGACCCCC
# DNA 2: GGGGGTCATTCATTTTGTAAACCTTTACTAGAGGTTGGGTGTGGTAGCCCCC
# B15: 86 (dsDNA)
# DNA 1: GGGGGAGTTTAGTTTGTAGAGTACTTACCTAGCAGCACAAAGCCCTGCCCCC
# DNA 2: GGGGGCAGGGCTTTGTGCTGCTAGGTAAGTACTCTACAAACTAAACTCCCCC
# B16: 84 (dsDNA)
# DNA 1: GGGGGTATGAATCACAATGTAAATATCTGTGTTTACCCCC
# DNA 2: GGGGGTAAACACAGATATTTACATTGTGATTCATACCCCC
# B17: 92 (dsDNA)
# DNA 1: GGGGGATATAATAATAAATCTTTAAAACAAAAAAAAAAACCCCC
# DNA 2: GGGGGTTTTTTTTTTTGTTTTAAAGATTTATTATTATATCCCCC
# B18: 88 (dsDNA)
# DNA 1: GGGGGTGTTTTGTTTTGTTTTTTGTATTGGGAAGTGGGCCCCC
# DNA 2: GGGGGCCCACTTCCCAATACAAAAAACAAAACAAAACACCCCC
# Target: T1, Brn2 DNA-binding domain (BD-Brn2)
# Assay: EMSA; 10% glycerol, 20 mM HEPES pH 7.8, 45 mM KCl, 10 mM NaCl, 1 mM EDTA, 1 mM DTT, 0.2 ug/uL BSA, 0.1% NP-40, 50 ng poly-dIdC; 20 ng each GST protein; room temperature 30 min (heterodimers 4 C); 6% PAGE 0.25x TBE
# Conditions: protein: recombinant; tags: GST (N-terminal, pGEX-6P-1); label: 32P-dCTP fill-in of the 5' (dG)5 overhangs of both strands (Methods; control probes are given with GGG)
# How it was run: (§1)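 Candidate cis-element oligonucleotides were annealed, labelled with 32P-dCTP and tested against GST-tagged transcription factor DNA-binding domains made in E. coli BL21 and purified on glutathione-sepharose. For each binding reaction, 20 ng protein was combined with 40,000–50,000 cpm probe and 50 ng poly-dIdC in HEPES/KCl glycerol buffer containing BSA and detergent for 30 min at room temperature. Gels of 6% polyacrylamide in 0.25×TBE were run at 4°C, and band radioactivity was measured on a BAS4000 imager. The readout for DNA binding was the band signal in the expected shift region.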
row,Binder,binding result
1,B1,no binding
2,B2,binds
3,B3,no binding
4,B4,no binding
5,B5,no binding
6,B6,binds
7,B7,binds
8,B8,no binding
9,B9,no binding
10,B10,no binding
11,B11,binds
12,B12,binds
13,B13,binds
14,B14,no binding
15,B15,no binding
16,B16,no binding
17,B17,binds
18,B18,no binding

# Target: Pax6 DNA-binding domain (BD-Pax6) (Mus musculus (B6), UniProt P63015 190-289)
# Sequence (P63015 190-289): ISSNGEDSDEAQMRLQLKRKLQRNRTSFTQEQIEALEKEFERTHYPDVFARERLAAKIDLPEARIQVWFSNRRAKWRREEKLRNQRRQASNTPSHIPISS
# Assay: as above
# Conditions: protein: recombinant; tags: GST (N-terminal, pGEX-6P-1); label: 32P-dCTP fill-in of the 5' (dG)5 overhangs of both strands (Methods; control probes are given with GGG)
# How it was run: as §1
row,Binder,binding result
1,B1,no binding
2,B2,binds
3,B3,binds
4,B4,binds
5,B5,binds
6,B6,no binding
7,B7,binds
8,B8,binds
9,B9,no binding
10,B10,no binding
11,B11,binds
12,B12,binds
13,B13,binds
14,B14,binds
15,B15,no binding
16,B16,binds
17,B17,binds
18,B18,no binding

# Target: T2, Oct6 DNA-binding domain (BD-Oct6)
# Assay: as above
# Conditions: protein: recombinant; tags: GST (N-terminal, pGEX-6P-1); label: 32P-dCTP fill-in of the 5' (dG)5 overhangs of both strands (Methods; control probes are given with GGG)
# How it was run: as §1
row,Binder,binding result
1,B1,binds
2,B2,binds
3,B3,binds
4,B4,binds
5,B5,no binding
6,B6,binds
7,B7,binds
8,B8,binds
9,B9,no binding
10,B10,no binding
11,B11,binds
12,B12,binds
13,B13,binds
14,B14,no binding
15,B15,no binding
16,B16,no binding
17,B17,binds
18,B18,no binding
